Test results from patent US12329841B2, “Odorant-binding protein compositions, methods and uses thereof” (Universidade do Minho, priority 2020, dated 2025).

How the values were obtained:
[1] = 1-AMA fluorescence binding assay in buffer; settings: 50 mM Tris-HCl pH 7.5 buffer, 37° C., 1 μM protein, 1-AMA ligand, Ka from Kd=1/Ka, mean of 2 independent experiments
Protocol: (§1) In an embodiment, the pure odorant-binding protein was lyophilized and used in further procedures. To determine the affinity of the odorant-binding protein to odour molecules, 1-aminoanthracene (1-AMA) was used as an odour model molecule. Increased concentrations of fluorescent ligand model 1-aminoanthracene (1-AMA) were added to 1 μM of protein, and the formation of ligand/protein complex was quantified after 1 h at 37° C. by fluorescence emission at 481 nm (excitation at 295 nm).^30 Dissociation constant (Kd) was determined from a plot of fluorescence intensity versus concentration of ligand, obtained with a standard non-linear regression method, described in Malpeli et al. (1998).^31 The affinity behaviour of protein in presence of sweat solution was performed through a competitive fluorescence assay. Here, 1 μM of protein was mixed with 2 μM of 1-AMA and incubated at 37° C. for 1 h. After this period, increased volumes of sweat solution were added to the complex and incubated at same conditions.
(§2) In a further embodiment, fluorescence emission at 481 nm (excitation at 295 nm) was recorded and the dissociation constant (Kd) calculated. The association constant (Ka) was calculated by formula Kd=1/Ka.

[2] = Competitive fluorescence assay with sweat solution added to 1-AMA/protein complex; format: binding; settings: 37° C.; for Ka in sweat (affinity/association constant): sweat solution (AATCC 15-2009, pH 4.0-8.5), 1 μM protein + 2 μM 1-AMA, mean of 2 independent experiments
Protocol: as §1
In an embodiment, the sweat solution was prepared as indicated in AATCC method 15-2009 “Colorfastness to Perspiration”. The pH of the prepared solution varied between 4.0 and 8.5. In accordance with its composition, the sweat solution is also regarded as electrolyte solution.
as §2

[3] = Fragrance release quantified by headspace GC-MS after adding sweat solution; settings: for Odorific molecules released in response to human perspiration, compared with other fusion proteins based on porcine OBP: sweat pH 4.0-8.5
Protocol: In an embodiment, the release of fragrance was quantified by gas chromatography-mass spectrometry (GC-MS). Increased concentrations of fragrance were used in different vials and the fragrance in headspace quantified performing the calibration curve (area of peak vs fragrance concentration). The fragrance was incubated with the odorant-binding protein at 37° C. Sweat solution was added and the fragrance release determined after several periods of time (0.5-24 h) of perspiration exposition.

[4] = particularly in the presence of a ligand; cited from earlier work
[5] = cited from earlier work
[6] = listed as Native porcine OBP (OBP-I)

Ka in buffer (affinity/association constant) [1]	Ka in buffer (affinity/association constant) ([1]; listed as Native OBP-I)	Ka in buffer (affinity/association constant) [1, 6]	Molecule	Reduction of affinity on addition of sweat solution (Ka buffer vs Ka sweat) [2]	Ka in sweat (affinity/association constant) [2]	Ka in sweat (affinity/association constant) ([2]; listed as Native OBP-I)	Ka in sweat (affinity/association constant) [2, 6]	Odorific molecules released in response to human perspiration, compared with other fusion proteins based on porcine OBP [3]	Structure stable to thermal denaturation up to (FT-IR) [4]	Release of fragrance in presence of sweat, value reported in state of art (ref. 25) [5]	More fragrance release in presence of sweat versus presence of buffer ([3]; sweat versus buffer)
4 ± 0.03 µM⁻¹	4 ± 0.03 µM⁻¹	4 ± 0.03 µM⁻¹	OBP-I: Native porcine (pig) odorant-binding protein, PDB ID 1DZK, SEQ ID NO. 1 (protein, listed as Sus scrofa, Pig OBP (PDB ID 1DZK)) QEPQPEQDPFELSGKWITSYIGSSDLEKIGENAPFQVFMRSIEFDDKESKVYLNFFSKENGICEEFSLIGTKQEGNTYDVNYAGNNKFVVSYASETALIISNINVDEEGDKTIMTGLLGKGTDIEDQDLEKFKEVTRENGIPEENIVNIIERDDCPA	20 ×	0.2 µM⁻¹	0.2 ± 0.02 µM⁻¹	0.2 ± 0.02 µM⁻¹	more than 20 ×	up to 80 °C		
4.17 µM⁻¹			OBP::GQ20::CBM: Recombinant pig OBP fused with spacer GQ20 and carbohydrate-binding module; comparative data, SEQ ID NO. 22 (protein, OBP::GQ20::CBM (recombinant protein)) QEPQPEQDPFELSGKWITSYIGSSDLEKIGENAPFQVFMRSIEFDDKESKVYLNFFSKENGICEEFSLIGTKQEGNTYDVNYAGNNKFVVSYASETALIISNINVDEEGDKTIMTGLLGKGTDIEDQDLEKFKEVTRENGIPEENIVNIIERDDCPAGQGQGQGQGQGQGQGQGQGQGQGQGQGQGQGQGQGQGQGQASPIGEGTFDDGPEGWVAYGTDGPLDTSTGALCVAVPAGSAQYGVGVVLNGVAIEEGTTYTLRYTATASTDVTVRALVGQNGAPYGTVLDTSPALTSEPRQVTETFTASATYPATPAADDPEGQIAFQLGGFSADAWTLCLDDVALDSEVEL	1.3 ×	3.16 µM⁻¹					1.3 ×	
4 µM⁻¹			OBP::GQ20::KP: Recombinant pig OBP fused with linker GQ 20× and KP peptide, SEQ ID NO. 21 (protein, OBP::GQ20::KP (recombinant protein)) QEPQPEQDPFELSGKWITSYIGSSDLEKIGENAPFQVFMRSIEFDDKESKVYLNFFSKENGICEEFSLIGTKQEGNTYDVNYAGNNKFVVSYASETALIISNINVDEEGDKTIMTGLLGKGTDIEDQDLEKFKEVTRENGIPEENIVNIIERDDCPAGQGQGQGQGQGQGQGQGQGQGQGQGQGQGQGQGQGQGQGQGGVCGPSPPCITT	6.8 ×	0.59 µM⁻¹			> 6.8 ×			6.8 ×
